The target of assay [1] is human melanocortin-1 receptor (human) (UniProt Q01726). In words: [I125]-NDP-α-MSH competition, hMC1r HEK-293 membranes.
For assay [2] the target is unchanged. The experiment in a line: cell-based or functional assay.
The target in assay [3] is human melanocortin-4 receptor (human) (UniProt P32245). The experiment in a line: [I125]-NDP-α-MSH competition, hMC4r HEK-293 membranes.

This note sets out measurements from patent publication US20220088146A1, “Melanocortin Receptor-Specific Peptide Formulations and Methods for Gastrointestinal Tract-Specific Delivery” (Palatin Technologies, Inc., priority 2018, published 2022).

Bridge positions count the residues as written; N and C are the ends. Square brackets hold non-standard residues; d marks the D form. Nle = CCCC[C@H](N)C(=O)O; Dab = NCC[C@H](N)C(=O)O; Dap = NC[C@H](N)C(=O)O

Sequence of human melanocortin-1 receptor (human) (Q01726 whole entry): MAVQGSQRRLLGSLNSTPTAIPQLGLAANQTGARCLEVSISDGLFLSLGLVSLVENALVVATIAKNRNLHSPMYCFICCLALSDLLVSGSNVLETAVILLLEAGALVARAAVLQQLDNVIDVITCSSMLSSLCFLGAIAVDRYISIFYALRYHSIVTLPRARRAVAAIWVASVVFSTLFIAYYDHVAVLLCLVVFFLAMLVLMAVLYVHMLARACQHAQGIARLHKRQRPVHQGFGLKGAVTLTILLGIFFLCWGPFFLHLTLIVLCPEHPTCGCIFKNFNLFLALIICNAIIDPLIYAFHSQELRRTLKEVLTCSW
Sequence of human melanocortin-4 receptor (human) (P32245 whole entry): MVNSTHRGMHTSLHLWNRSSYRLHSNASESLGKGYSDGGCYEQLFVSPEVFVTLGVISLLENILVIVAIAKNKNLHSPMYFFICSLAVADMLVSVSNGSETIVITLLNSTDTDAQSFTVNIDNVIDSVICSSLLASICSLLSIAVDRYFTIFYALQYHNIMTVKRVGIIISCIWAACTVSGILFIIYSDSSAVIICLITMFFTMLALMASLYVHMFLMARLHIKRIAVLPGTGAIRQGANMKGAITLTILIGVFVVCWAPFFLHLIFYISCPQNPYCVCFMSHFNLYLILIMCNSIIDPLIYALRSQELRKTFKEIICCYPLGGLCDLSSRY

B1: Ac-Nle-cyclo(Glu-Pro-D-Phe-Arg-Dab)-Trp-NH2 (peptide)
peptide: Ac-[Nle]EP[dF]R[Dab]W-NH2
modifications: lactam 2-6
SMILES: CCCC[C@H](NC(C)=O)C(=O)N[C@H]1CCC(=O)NCC[C@@H](C(=O)N[C@@H](Cc2c[nH]c3ccccc23)C(N)=O)NC(=O)[C@H](CCCNC(=N)N)NC(=O)[C@@H](Cc2ccccc2)NC(=O)[C@@H]2CCCN2C1=O
As to B1, the inhibition constant Ki in assay [1] came out at 3 nM; in assay [3], 185 nM. In assay [2], this molecule had an MC-1 EC50 (average; cAMP HBL) of 0.18 nM. Moreover, the MC-1 Emax (average; cAMP HBL) in assay [2] was 97%.

B2: Ac-Nle-cyclo(Glu-His-D-Phe-Arg-Dab)-Ala-NH2 (peptide)
peptide: Ac-[Nle]EH[dF]R[Dab]A-NH2
modifications: lactam 2-6
Regarding B2, the inhibition constant Ki in assay [1] was determined as 2 nM. Besides, in assay [2], the MC-1 EC50 (average; cAMP HBL) came to 0.08 nM and the MC-1 Emax (average; cAMP HBL) came to 97%. The molecule further registered an inhibition constant (Ki) in assay [3] of 7480 nM.

B3: Ac-Nle-cyclo(Asp-His-D-Phe-Arg-Dap)-Trp-NH2 (peptide)
peptide: Ac-[Nle]DH[dF]R[Dap]W-NH2
modifications: lactam 2-6
SMILES: CCCC[C@H](NC(C)=O)C(=O)N[C@H]1CC(=O)NC[C@@H](C(=O)N[C@@H](Cc2c[nH]c3ccccc23)C(N)=O)NC(=O)[C@H](CCCNC(=N)N)NC(=O)[C@@H](Cc2ccccc2)NC(=O)[C@H](Cc2c[nH]cn2)NC1=O
For B3, in assay [1], the Ki was 2 nM. Moreover, in assay [2], the MC-1 EC50 (average; cAMP HBL) was 0.195 nM and the MC-1 Emax (average; cAMP HBL) worked out at 88%. In assay [3], this molecule registered a Ki of 1320 nM.

B4: Ac-Nle-cyclo(Glu-His-D-Phe-Gly-Dab)-Trp-NH2 (peptide)
peptide: Ac-[Nle]EH[dF]G[Dab]W-NH2
modifications: lactam 2-6
SMILES: CCCC[C@H](NC(C)=O)C(=O)N[C@H]1CCC(=O)NCC[C@@H](C(=O)N[C@@H](Cc2c[nH]c3ccccc23)C(N)=O)NC(=O)CNC(=O)[C@@H](Cc2ccccc2)NC(=O)[C@H](Cc2c[nH]cn2)NC1=O
In turn, B4 came in with an inhibition constant Ki in assay [1] of 9 nM. In assay [2], this molecule returned an MC-1 EC50 (average; cAMP HBL) of 4 nM and an MC-1 Emax (average; cAMP HBL) of 59%. This molecule displayed a Ki in assay [3] of 10000 nM.

B5: Ac-Nle-cyclo(Glu-His-D-Phe-Arg-Dab)-Lys-NH2 (peptide)
peptide: Ac-[Nle]EH[dF]R[Dab]K-NH2
modifications: lactam 2-6
SMILES: CCCC[C@H](NC(C)=O)C(=O)N[C@H]1CCC(=O)NCC[C@@H](C(=O)N[C@@H](CCCCN)C(N)=O)NC(=O)[C@H](CCCNC(=N)N)NC(=O)[C@@H](Cc2ccccc2)NC(=O)[C@H](Cc2c[nH]cn2)NC1=O
B5: the inhibitory constant (Ki) in assay [1] amounted to 2 nM. In assay [2], the MC-1 EC50 (average; cAMP HBL) was 0.175 nM and the MC-1 Emax (average; cAMP HBL) stood at 91%. The Ki in assay [3] came to 7380 nM.

B6: Ac-Nle-cyclo(Glu-His-D-Phe-Ala-Dab)-Trp-NH2 (peptide)
peptide: Ac-[Nle]EH[dF]A[Dab]W-NH2
modifications: lactam 2-6
SMILES: CCCC[C@H](NC(C)=O)C(=O)N[C@H]1CCC(=O)NCC[C@@H](C(=O)N[C@@H](Cc2c[nH]c3ccccc23)C(N)=O)NC(=O)[C@H](C)NC(=O)[C@@H](Cc2ccccc2)NC(=O)[C@H](Cc2c[nH]cn2)NC1=O
Turning to B6, the Ki was determined as 0.8 nM in assay [1] and 10000 nM in assay [3]. In assay [2], this molecule gave an MC-1 EC50 (average; cAMP HBL) of 0.115 nM. The molecule also displayed an MC-1 Emax (average; cAMP HBL) in assay [2] of 72%.
